Assay results as given in US20240301038A1.

B1: AB-009769 (antibody, V domains shown)
VH: EVQLVESGGGLVQPGGSLRLSCAASGFTFSSYWMSWVRQAPGKGLEWVANIKQDGSEKYYVDSVKGRFTISRDNAKNSLYLQMNSLRAEDTAVYYCARSPEVLWFGDPVLDNWFDPWGQGTLVTVSS
VL: SYELTQPPSVSVSPGQTARITCSGDALPKQYAYWYQQKPGQAPVLVIYKDSERPSGIPERFSGSSSGTTVTLTISGVQAEDEADYYCQSADSSGTYPVVFGGGTKLTVL
B2: AB-009734 (antibody, V domains shown)
VH: QVHLVQSGAEVKTPGASVRVSCKASGYTFTSHYMHWVRQAPGQGLEWMGLINPSGSGTAYPQHFQGRVTMTRDTSTTTDYMDLSSLRSEDTAMYFCARMERSGAFDLWGQGTMVTVSS
VL: EIVLTQSPGTLSLSPGERATLSCRASQTISSRYLAWYYQKPGQAPRLLIQGSSIRATGIPDRFSGSGSGTDFTLTISRLEPEDFAVYYCQHYGSSPPMYTFGQGTKLEIK
B3: AB-009615 (antibody, V domains shown)
VH: QVQLVESGGGVVQPGRSLRLSCAASGFTFSSYGMHWVRQAPGKGLEWVAVIWYDGSNKYYADSVKGRFTISRDNSKNTLYLQMNSLRAEDTAVYYCAKVGSPYCSGGSCYSGYFDYWGQGTLVTVSS
VL: not shown
B4: AB-009620 (antibody, V domains shown)
VH: QITLKESGPTLVKPTQTLTLTCTFSGFSLSTSGVGVGWIRQPPGKALEWLALIYWDDDKRYSPSLKSRLTITKDTSKNQVVLTMTNMDPVDTATYYCAHHEVATVFDYWGQGTLVTVSS
VL: QSALTQPASVSGSPGQSITISCTGTSSDVGAYNYVSWYQQHPGKAPKLMIYEVSNRPSGVSNRFSGSKSGNTASLTISGLQAEDEADYYCSSYTSSSTVFGGGTKLTVL
B5: AB-009281 (antibody, V domains shown)
VH: EVQLVETGGGLIQPGGSLRLSCAASGFTVSSNYMSWVRQAPGKGLEWVSVIYSGGSTYYADSVKGRFTISRDNSKNTLYLQMNSLRAEDTAVYYCARDLYYYGMDVWGQGTTVTVSS
VL: DIQLTQSPSFLSASVGDRVTITCRASQGISSYLAWYQQKPGKAPKLLIYAASTLQSGVPSRFSGSGSGTEFTLTISSLQPEDFATYYCQQLNSYPTFGQGTKVEIK
B6: AB-009661 (antibody, V domains shown)
VH: QVQLVESGGGVVQPGRSLRLSCAASGFTFSSYGMHWVRQAPGKGLEWVAVISYDGSNKYYADSVKGRFTISRDNSKNTLYLQMNSLRAEDTAVYYCAKDYGDYGGMDVWGQGTTVTVSS
VL: not shown
B7: AB-009346 (antibody, V domains shown)
VH: EVQLVESGGGVVRPGGSLRLSCAASGFTFDDYGMSWVRQAPGKGLEWVSGINWNGGSTGYADSVKGRFTISRDNAKNSLYLQMNSLRAEDTALYYCARWPLLGISGYYHYYMDVWGKGTTVTVSS
VL: QSALTQPRSVSGSPGQSVTISCTGTSSDVGGYNYVSWYQQHPGKAPKLMIYDVSKRPSGVPDRFSGSKSGNTASLTISGLQAEDEADYYCCSYAGSYTLLFGGGTKLIVL
B8: AB-009358 (antibody, V domains shown)
VH: QVHLVQSGAEVKKPGASVKISCKASGYTFTSYYVHWVRQAPGQGLEWMGIIKPSGAGTIYAQKFQGRVTMTRDTSTSTVYMELSSLISEDTAVYYCARGGGVTDRDYWGQGTLVTVSS
VL: QSALTQEASVSATVGQKVTLSCTGNTNNIGGYAVGWHQQISHGAPKTVMFGNSLPSGIPDRFSGSKSGTTASLIISGLQPEDEADYYCSTWDSSLGAVLFGGGTKLTVL
B9: AB-009614 (antibody, V domains shown)
VH: QVQLVESGGGVVQPGRSLRLSCAASGFTFSSYGMHWVRQAPGKGLEWVAVISYDGSNKYYADSVKGRFTISRDNSKNTLYLQMNSLRAEDTAVYYCAKDQKYYDILTGYYRSTYYYYYYGMDVWGQGTTVTVSS
VL: not shown

target: SARS-CoV-2 native Spike (S) trimer (Acro Biosystems) (SARS-CoV-2), P0DTC2; experiment: ELISA on spike trimer; settings: remark: other sources report otherwise

Compared with B1, B2 is higher in OD (450 nm): 2.87 OD (450 nm) for the first, 3.57 OD (450 nm) for the second.

Compared with B3, B4 is lower in OD (450 nm): 2.8 OD (450 nm) for the first, 2.7 OD (450 nm) for the second.

Compared with B5, B6 is higher in OD (450 nm): 2.6 OD (450 nm) for the first, 2.86 OD (450 nm) for the second.

First: B7
Second: B8
The OD (450 nm) of the first is lower: 2.55 OD (450 nm) for the first, 2.76 OD (450 nm) for the second.

With B9 the OD (450 nm) was 0.361 OD (450 nm).
